Molecular target: T1, recombinant His-tagged wild-type ZPR9 (UniProt Q969S3 1-477)
T1 chain: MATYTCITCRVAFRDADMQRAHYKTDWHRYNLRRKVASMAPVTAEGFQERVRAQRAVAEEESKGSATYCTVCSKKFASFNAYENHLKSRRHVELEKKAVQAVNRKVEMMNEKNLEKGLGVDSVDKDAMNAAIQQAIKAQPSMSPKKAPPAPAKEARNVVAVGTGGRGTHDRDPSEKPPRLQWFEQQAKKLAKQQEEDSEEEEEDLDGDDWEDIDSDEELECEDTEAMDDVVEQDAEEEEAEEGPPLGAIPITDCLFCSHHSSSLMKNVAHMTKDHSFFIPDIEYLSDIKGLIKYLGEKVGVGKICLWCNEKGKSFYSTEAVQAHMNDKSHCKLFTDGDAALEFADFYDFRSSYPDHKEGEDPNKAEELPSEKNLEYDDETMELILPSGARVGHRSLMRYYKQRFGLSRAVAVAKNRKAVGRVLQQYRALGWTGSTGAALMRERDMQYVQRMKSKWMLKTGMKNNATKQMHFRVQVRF
Experiment: ITC

Ka: 39100 M⁻¹
B1: recombinant His-tagged wild-type MPK38 (enzyme)
chain: MKDYDELLKYYELYETIGTGGFAKVKLACHVLTGEMVAIKIMDKNALGSDLPRVKTEIDALKSLRHQHICQLYHVLETKNKIFMVLEYCPGGELFDYIISQDRLSEEETRVVFRQILSAVAYVHSQGYAHRDLKPENLLFDENHKLKLIDFGLCAKPKGNKDYHLQTCCGSLAYAAPELIQGKSYLGSEADVWSMGILLYVLMCGFLPFDDDNVMALYKKIMRGKYEVPKWLSPSSILLLQQMLQVDPKKRISMRNLLNHPWVMQDYSCPVEWQSKTPLTHLDEDCVTELSVHHRSSRQTMEDLISSWQYDHLTATYLLLLAKKARGKPARLQLLSFSCGTASTTPKSKNLSLEDMSTSDDNCVAGLIDYELCEDKLLAPKTPQVTKHLAESNHAASKSPAPGVRRAVANKLMDKENVCTPKSSVKNEEQFVFSEPKIPVSKNQYKREIPASPTRFPTPAKARAQCLREAPVRTPGNSAGADTLTTGVISPERRCRSMDVDLNQAHMEDTPKKKGTNVFGSLERGLDKVLTALTRNKKKGSARDGPRKRKLHYNVTTTRLVNPDQLLSEIMAILPKKNVDFVQKGYTLKCQTQSDFGKVTMQFELEVCQLQRPDVVGIRRQRLKGDAWVYKRLVEDILSGCKM

Reference: PMC5307367 (2017)
